Fewer inactive variants are shown than the library holds.
Tests used:
biotinyl-Val-oxazolone = assay: self-aminoacylation, catalytic enhancement (BVO) (fold over background); higher = more active; k-Seq, kA / k0A0; sequences stand for … in GGGAAUGGAUCCACAUCUACGAAUUC…UUCACUGCAGACUUGACGAAGCUG
Summary of the method: (§1)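 Mutagenized RNA pools with a 21-nt variable region (0.43 μM) reacted with each biotinyl-aminoacyl-oxazolone at 2–1250 μM. Reactions ran in 50 μL HEPES/NaCl/KCl/MgCl2/CaCl2 buffer with 5% acetonitrile, pH 6.9–7.0, for 90 minutes at room temperature. Streptavidin-captured RNA was quantified by triplicate qPCR and Illumina sequencing, and per-sequence fraction reacted was fit to a pseudo-first-order model with 1000 bootstraps. Catalytic enhancement is median kA divided by the uncatalyzed rate, the low-activity peak of a bimodal Gaussian fit.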

biotinyl-Trp-oxazolone = assay: self-aminoacylation, catalytic enhancement (BWO) (fold over background); higher = more active; k-Seq, kA / k0A0; sequences stand for … in GGGAAUGGAUCCACAUCUACGAAUUC…UUCACUGCAGACUUGACGAAGCUG
Summary of the method: as §1

biotinyl-Phe-oxazolone = assay: self-aminoacylation, catalytic enhancement (BFO) (fold over background); higher = more active; k-Seq, kA / k0A0; sequences stand for … in GGGAAUGGAUCCACAUCUACGAAUUC…UUCACUGCAGACUUGACGAAGCUG
Summary of the method: as §1

biotinyl-Leu-oxazolone = assay: self-aminoacylation, catalytic enhancement (BLO) (fold over background); higher = more active; k-Seq, kA / k0A0; sequences stand for … in GGGAAUGGAUCCACAUCUACGAAUUC…UUCACUGCAGACUUGACGAAGCUG
Summary of the method: as §1

biotinyl-Met-oxazolone = assay: self-aminoacylation, catalytic enhancement (BMO) (fold over background); higher = more active; k-Seq, kA / k0A0; sequences stand for … in GGGAAUGGAUCCACAUCUACGAAUUC…UUCACUGCAGACUUGACGAAGCUG
Summary of the method: as §1

biotinyl-Ile-oxazolone = assay: self-aminoacylation, catalytic enhancement (BIO) (fold over background); higher = more active; k-Seq, kA / k0A0; sequences stand for … in GGGAAUGGAUCCACAUCUACGAAUUC…UUCACUGCAGACUUGACGAAGCUG
Summary of the method: as §1

Row | Sequence | self-aminoacylation (biotinyl-Val-oxazolone) | self-aminoacylation (biotinyl-Trp-oxazolone) | self-aminoacylation (biotinyl-Phe-oxazolone) | self-aminoacylation (biotinyl-Leu-oxazolone) | self-aminoacylation (biotinyl-Met-oxazolone) | self-aminoacylation (biotinyl-Ile-oxazolone)
1 | AUUACCCUGGUUACCGAGUGA [Fam2.1 aminoacylation ribozyme variant] | 5.65 | 12.3 | 78.8 | 12.6 | 11.9 | 5.43
2 | AUUACCCUGGUUAGCGAGUGA [Fam2.1 aminoacylation ribozyme variant] | 2.1 | 5.27 | 22.1 | 4.28 | 4.21 | 2.2
3 | AUUACCCUGGUUAUAGAGUGA [Fam2.1 aminoacylation ribozyme variant] | 6.47 | 19.1 | 117 | 16 | 16.7 | 6.6
4 | AUUACCCUGGUUAUCGCGUGA [Fam2.1 aminoacylation ribozyme variant] | 6.04 | 13.5 | 93.6 | 11.6 | 12.4 | 4.99
5 | AUUACCCUGGUUCUCGAGUGA [Fam2.1 aminoacylation ribozyme variant] | 2.2 | 3.34 | 8.08 | 3.1 | 2.08 | 1.78
6 | AUUACCCUGGUUGUCGAGUGA [Fam2.1 aminoacylation ribozyme variant] | 1.33 | 3.23 | 1.97 | 1.85 | 1.91 | 1.38
7 | AUUACCCUGUGCAUCGAGUGA [Fam2.1 aminoacylation ribozyme variant] | 3.05 | 5.89 | 16.8 | 5.11 | 6.14 | 2.47
8 | AUUACCCUGUUCAGCGAGUGA [Fam2.1 aminoacylation ribozyme variant] | 2.96 | 6.39 | 14.4 | 4.4 | 5.05 | 2.51
9 | AUUACCCUGUUCAUCGCGUGA [Fam2.1 aminoacylation ribozyme variant] | 11.7 | 25.5 | 171 | 25.1 | 23.5 | 9.25
10 | AUUACCCUUGACAUCGAGUGA [Fam2.1 aminoacylation ribozyme variant] | 5.25 | 13.5 | 50.8 | 11 | 10.8 | 4.31
11 | AUUACCCUUGUCAACGAGUGA [Fam2.1 aminoacylation ribozyme variant] | 3.44 | 7.03 | 21.7 | 6.71 | 5.49 | 3.27
12 | AUUACCCUUGUCACCGAGUGA [Fam2.1 aminoacylation ribozyme variant] | 4.31 | 11.1 | 50.2 | 9.28 | 8.49 | 4.01
13 | AUUACCCUUGUCAUAGAGUGA [Fam2.1 aminoacylation ribozyme variant] | 4.59 | 11 | 36.6 | 8.53 | 8.7 | 4.36
14 | AUUACCCUUGUCAUCCAGUGA [Fam2.1 aminoacylation ribozyme variant] | 2.25 | 3.96 | 9.92 | 3.44 | 3.41 | 2.21
15 | AUUACCCUUGUCAUCGAGCGA [Fam2.1 aminoacylation ribozyme variant] | 1.19 | 0.631 | 0.755 | 1.67 | 1.12 | 1.49
16 | AUUACCCUUGUUAUCGAGUGA [Fam2.1 aminoacylation ribozyme variant] | 6.96 | 19.6 | 116 | 14.7 | 15.9 | 7.09
17 | AUUACCGUGGUCAUCCAGUGA [Fam2.1 aminoacylation ribozyme variant] | 3.32 | 6.67 | 28.8 | 5.29 | 5.39 | 3.52
18 | AUUACCGUGGUCAUCGAGAGA [Fam2.1 aminoacylation ribozyme variant] | 1.18 | 0.794 | 0.92 | 0.723 | 0.605 | 1.11
19 | AUUACCGUGGUCAUCGAGUAA [Fam2.1 aminoacylation ribozyme variant] | 1.58 | 1.93 | 1.2 | 1.56 | 1.35 | 1.42
20 | AUUACCGUGGUCAUCGUGUGA [Fam2.1 aminoacylation ribozyme variant] | 1.25 | 2.03 | 5.4 | 2.49 | 1.64 | 1.3
21 | AUUACCGUGGUCAUGGAGUGA [Fam2.1 aminoacylation ribozyme variant] | 2.37 | 3.69 | 12.2 | 3.43 | 3.21 | 2.27
22 | AUUACCUUGGACAUCGAGUGA [Fam2.1 aminoacylation ribozyme variant] | 2.9 | 7.94 | 26.3 | 6.08 | 5.7 | 3.16
23 | AUUACCUUGGUCAUCGAGUGG [Fam2.1 aminoacylation ribozyme variant] | 1.45 | 0.873 | 1.64 | 2.13 | 2.08 | 1.67
24 | AUUACCUUGGUCAUUGAGUGA [Fam2.1 aminoacylation ribozyme variant] | 4.11 | 10.2 | 32.4 | 7.89 | 8.51 | 4.08
25 | AUUACGCGGGUCAUCGAGUGA [Fam2.1 aminoacylation ribozyme variant] | 3.31 | 5.54 | 22.7 | 4.86 | 5.54 | 3.23
26 | AUUACGCUGGACAUCGAGUGA [Fam2.1 aminoacylation ribozyme variant] | 2.98 | 4.65 | 16.1 | 4.51 | 4.42 | 2.63
